According to the supplement of paper PMC12764529:
± gives the half width of the 95% confidence interval.

assay: folding stability dG unfold from trypsin proteolysis; higher = more stable
How it was run: (§1)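 How resistant each design was to proteolysis was captured as K50, inferred by Bayesian fitting of sequencing counts. Unfolding free energy was then derived relative to a sequence-predicted unfolded-state K50 and a shared folded-state K50, per protease or combined. Digestion used trypsin and chymotrypsin at 11 threefold-diluted concentrations plus a no-protease condition, on mini-proteins under 80 residues without cysteine in a PA-tagged cDNA display construct. Designs were kept only when AlphaFold2 dimer inter-PAE was above 15.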

In order of falling “folding stability dG unfold” value:
1. SMTITVKPENIEEVLAQIKALAAKHPKPVTITLEMSPEEVEKLRKALEDAGYKVEVDEKTGKVRIEIKVPSA [r9_600_TrROS_Hall]  4.52 ± 0.22 kcal/mol
2. SAGGSAGGSAGKKPIKEVTITLPPGAKIVKIEIEKTEDGKYILKITVEVDGKLYEFTFELSAGGSAGGSAGG [r11_1013_TrROS_Hall]  3.13 ± 0.25 kcal/mol
3. RKIEINIWRNENHWYVRIKLEHPDGKEQELMFPMDSWDEAREFIRGILANLPPNNVKIEDIEIYPPNGQPIS [r1_169_TrROS]  2.85 ± 0.076 kcal/mol
4. SAGGSAGGSAGGSGMKYKVTVTFPGGEVRSLEVDSVEEALEKLKEENRPIKEVTVEPLESAGGSAGGSAGGS [r4_213_JUSTAS]  2.2 ± 0.14 kcal/mol
5. SAGGSAGGSAGGTITLPNGAKVTRIEFLPDGTLRVEAVVETDGGPVTVEITLPVYPSLATSAGGSAGGSAGG [r7_37_TrMRF]  2.19 ± 0.058 kcal/mol
6. SAGGGTFYLVVKVEKVAPNPETGELVEERLELVIPGKAPNAVSEEDLKAFVDALLPLGYKVEVELREGSAGG [r13_926_TrMRF]  1.91 ± 0.12 kcal/mol
7. SAGGSAGGSAGDWIMFNFTYKDPGDPGKERTITILIPIPPPPPPEPKPVKDPNGNEGPVYSAGGSAGGSAGG [r11_419_TrROS]  1.69 ± 0.1 kcal/mol
8. SAGGSAGGSAGMVTVGDTEVVIEKDPNSDKYTVTVTPADGTTETLTFDSEEEVERYIEAKSAGGSAGGSAGG [r11_238_JUSTAS]  1.49 ± 0.051 kcal/mol
9. SMKELVKRIAERFPNFKVKIKPEKTGGKKYRTVRIENPDSGRDMEIVFTKNGDIQIEMPNGRRIPLEDILSA [r9_1176_TrROS]  1.46 ± 0.018 kcal/mol
10. SAGGWHTIQINVRRPGKPITPEKIKEALREAYPGYPIEVEDINPEDGRITITVPENAMPRIKEALMKSAGGS [r8_235_TrROS]  1.06 ± 0.041 kcal/mol
11. SAGGSAGGSAGGSDTPGNYKKVKITLKRVTLGDNNTPKVETVELEVTVPPNYTLEDVLSSAGGSAGGSAGGS [r4_283_TrMRF]  0.976 ± 0.072 kcal/mol
12. SAGGMEVKEISIPVPENLTPEQAVEKVKELFEKHPELEHVLVYFELPNGKPLVVEVDKNGKITKVEEKSAGG [r13_690_TrMRF]  0.889 ± 0.041 kcal/mol
13. SAGGSAGGSMETVVTVPLPDGRTLTITRYPDGTVTVTYPDGTPVATRPVAPDTSDEAVVAALASAGGSAGGS [r12_990_JUSTAS]  0.522 ± 0.016 kcal/mol
14. PLTFPALVRNPLEDRWEEVTVTLHPDGTLTVTHRGRPLASVRVVTRPPPEVELVPVRDADGVERLGLRTRGS [r1_496_TrMRF]  0.346 ± 0.071 kcal/mol
15. SAGGSAGGMYTVIEEEFTFPPSNPDVVIEVEYPDLPDSYTITQSTFPEGDTYHVRVTITVPPNLSAGGSAGG [r6_482_JUSTAS]  0.314 ± 0.089 kcal/mol
16. SAGGSAGSFVNLGPEESEGVIVVTYYNEDGTTTTATYTYFPSPKTVSSNGPVTVPPNYKLSVSPLLSAGGSA [r15_198_JUSTAS]  0.165 ± 0.051 kcal/mol
17. SAGGSAGGSAGGIGDDGKVRVALLDKNGKVLGPVYVTKVEEGKIEVEAEPDYTLVLNLESAGGSAGGSAGGS [r10_1257_TrMRF]  -0.0768 ± 0.11 kcal/mol

assay: folding stability dG unfold from chymotrypsin proteolysis; higher = more stable
How it was run: as §1

In order of falling “folding stability dG unfold” value:
1. RKIEINIWRNENHWYVRIKLEHPDGKEQELMFPMDSWDEAREFIRGILANLPPNNVKIEDIEIYPPNGQPIS [r1_169_TrROS]  4.329 ± 0.023 kcal/mol
2. SAGGSAGGSAGKKPIKEVTITLPPGAKIVKIEIEKTEDGKYILKITVEVDGKLYEFTFELSAGGSAGGSAGG [r11_1013_TrROS_Hall]  4.27 ± 0.14 kcal/mol
3. SMTITVKPENIEEVLAQIKALAAKHPKPVTITLEMSPEEVEKLRKALEDAGYKVEVDEKTGKVRIEIKVPSA [r9_600_TrROS_Hall]  3.05 ± 0.096 kcal/mol
4. SAGGSAGGSAGGSGMKYKVTVTFPGGEVRSLEVDSVEEALEKLKEENRPIKEVTVEPLESAGGSAGGSAGGS [r4_213_JUSTAS]  2.54 ± 0.13 kcal/mol
5. SAGGMEVKEISIPVPENLTPEQAVEKVKELFEKHPELEHVLVYFELPNGKPLVVEVDKNGKITKVEEKSAGG [r13_690_TrMRF]  2.28 ± 0.048 kcal/mol
6. SAGGSAGGSAGGTITLPNGAKVTRIEFLPDGTLRVEAVVETDGGPVTVEITLPVYPSLATSAGGSAGGSAGG [r7_37_TrMRF]  2.13 ± 0.036 kcal/mol
7. SAGGGTFYLVVKVEKVAPNPETGELVEERLELVIPGKAPNAVSEEDLKAFVDALLPLGYKVEVELREGSAGG [r13_926_TrMRF]  2.07 ± 0.12 kcal/mol
8. SAGGSAGGSAGDWIMFNFTYKDPGDPGKERTITILIPIPPPPPPEPKPVKDPNGNEGPVYSAGGSAGGSAGG [r11_419_TrROS]  1.86 ± 0.08 kcal/mol
9. SAGGSAGGSMETVVTVPLPDGRTLTITRYPDGTVTVTYPDGTPVATRPVAPDTSDEAVVAALASAGGSAGGS [r12_990_JUSTAS]  1.83 ± 0.023 kcal/mol
10. SAGGSAGGSAGMVTVGDTEVVIEKDPNSDKYTVTVTPADGTTETLTFDSEEEVERYIEAKSAGGSAGGSAGG [r11_238_JUSTAS]  1.7 ± 0.035 kcal/mol
11. PLTFPALVRNPLEDRWEEVTVTLHPDGTLTVTHRGRPLASVRVVTRPPPEVELVPVRDADGVERLGLRTRGS [r1_496_TrMRF]  1.21 ± 0.08 kcal/mol
12. SAGGSAGSFVNLGPEESEGVIVVTYYNEDGTTTTATYTYFPSPKTVSSNGPVTVPPNYKLSVSPLLSAGGSA [r15_198_JUSTAS]  1.13 ± 0.054 kcal/mol
13. SMKELVKRIAERFPNFKVKIKPEKTGGKKYRTVRIENPDSGRDMEIVFTKNGDIQIEMPNGRRIPLEDILSA [r9_1176_TrROS]  1.1 ± 0.077 kcal/mol
14. SAGGSAGGSAGGSDTPGNYKKVKITLKRVTLGDNNTPKVETVELEVTVPPNYTLEDVLSSAGGSAGGSAGGS [r4_283_TrMRF]  1.1 ± 0.14 kcal/mol
15. SAGGWHTIQINVRRPGKPITPEKIKEALREAYPGYPIEVEDINPEDGRITITVPENAMPRIKEALMKSAGGS [r8_235_TrROS]  0.896 ± 0.076 kcal/mol
16. SAGGSAGGMYTVIEEEFTFPPSNPDVVIEVEYPDLPDSYTITQSTFPEGDTYHVRVTITVPPNLSAGGSAGG [r6_482_JUSTAS]  0.762 ± 0.1 kcal/mol
17. SAGGSAGGSAGGIGDDGKVRVALLDKNGKVLGPVYVTKVEEGKIEVEAEPDYTLVLNLESAGGSAGGSAGGS [r10_1257_TrMRF]  0.487 ± 0.12 kcal/mol

assay: folding stability dG unfold (combined trypsin and chymotrypsin); higher = more stable
How it was run: as §1

In order of rising “folding stability dG unfold” value:
1. SAGGSAGGSAGGIGDDGKVRVALLDKNGKVLGPVYVTKVEEGKIEVEAEPDYTLVLNLESAGGSAGGSAGGS [r10_1257_TrMRF]  0.329 ± 0.15 kcal/mol
2. SAGGSAGGMYTVIEEEFTFPPSNPDVVIEVEYPDLPDSYTITQSTFPEGDTYHVRVTITVPPNLSAGGSAGG [r6_482_JUSTAS]  0.605 ± 0.076 kcal/mol
3. SAGGSAGSFVNLGPEESEGVIVVTYYNEDGTTTTATYTYFPSPKTVSSNGPVTVPPNYKLSVSPLLSAGGSA [r15_198_JUSTAS]  0.818 ± 0.067 kcal/mol
4. PLTFPALVRNPLEDRWEEVTVTLHPDGTLTVTHRGRPLASVRVVTRPPPEVELVPVRDADGVERLGLRTRGS [r1_496_TrMRF]  0.964 ± 0.074 kcal/mol
5. SAGGWHTIQINVRRPGKPITPEKIKEALREAYPGYPIEVEDINPEDGRITITVPENAMPRIKEALMKSAGGS [r8_235_TrROS]  1.01 ± 0.11 kcal/mol
6. SAGGSAGGSAGGSDTPGNYKKVKITLKRVTLGDNNTPKVETVELEVTVPPNYTLEDVLSSAGGSAGGSAGGS [r4_283_TrMRF]  1.14 ± 0.16 kcal/mol
7. SMKELVKRIAERFPNFKVKIKPEKTGGKKYRTVRIENPDSGRDMEIVFTKNGDIQIEMPNGRRIPLEDILSA [r9_1176_TrROS]  1.36 ± 0.059 kcal/mol
8. SAGGSAGGSMETVVTVPLPDGRTLTITRYPDGTVTVTYPDGTPVATRPVAPDTSDEAVVAALASAGGSAGGS [r12_990_JUSTAS]  1.54 ± 0.037 kcal/mol
9. SAGGSAGGSAGMVTVGDTEVVIEKDPNSDKYTVTVTPADGTTETLTFDSEEEVERYIEAKSAGGSAGGSAGG [r11_238_JUSTAS]  1.61 ± 0.052 kcal/mol
10. SAGGMEVKEISIPVPENLTPEQAVEKVKELFEKHPELEHVLVYFELPNGKPLVVEVDKNGKITKVEEKSAGG [r13_690_TrMRF]  1.88 ± 0.095 kcal/mol
11. SAGGSAGGSAGDWIMFNFTYKDPGDPGKERTITILIPIPPPPPPEPKPVKDPNGNEGPVYSAGGSAGGSAGG [r11_419_TrROS]  1.99 ± 0.18 kcal/mol
12. SAGGGTFYLVVKVEKVAPNPETGELVEERLELVIPGKAPNAVSEEDLKAFVDALLPLGYKVEVELREGSAGG [r13_926_TrMRF]  2.07 ± 0.2 kcal/mol
13. SAGGSAGGSAGGTITLPNGAKVTRIEFLPDGTLRVEAVVETDGGPVTVEITLPVYPSLATSAGGSAGGSAGG [r7_37_TrMRF]  2.17 ± 0.037 kcal/mol
14. SAGGSAGGSAGGSGMKYKVTVTFPGGEVRSLEVDSVEEALEKLKEENRPIKEVTVEPLESAGGSAGGSAGGS [r4_213_JUSTAS]  2.44 ± 0.16 kcal/mol
15. SMTITVKPENIEEVLAQIKALAAKHPKPVTITLEMSPEEVEKLRKALEDAGYKVEVDEKTGKVRIEIKVPSA [r9_600_TrROS_Hall]  3.63 ± 0.074 kcal/mol
16. RKIEINIWRNENHWYVRIKLEHPDGKEQELMFPMDSWDEAREFIRGILANLPPNNVKIEDIEIYPPNGQPIS [r1_169_TrROS]  3.87 ± 0.069 kcal/mol
17. SAGGSAGGSAGKKPIKEVTITLPPGAKIVKIEIEKTEDGKYILKITVEVDGKLYEFTFELSAGGSAGGSAGG [r11_1013_TrROS_Hall]  3.98 ± 0.29 kcal/mol
